B1: TPR 5TU (parent)
chain: GGAUCUUCUCGAUCUAACAAAAAAGACAAAUCUGCCACAAAGCUUGAGAGCAUCUUCGGAUGCAGAGGCGGCAGCCUUCGGUGGCGCGAUAGCGCCAACGUUCUCAACUAUGACACGCAAAACGCGUGCUCCGUUGAAUGGAGUUUAUCAUG

This sample holds only a part of the variants without activity. A value given as a limit tells only on which side of the number the result lay.

This data set covers variants of B1. As to the kind of experiment: polymerase ribozyme fitness, log enrichment relative to wild type (log ratio); higher = more active; in vitro selection for triplet polymerase activity. The method in brief: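 A heterodimeric triplet polymerase ribozyme had each of its subunits mutagenized by PCR into a library, which was transcribed. One round of in vitro selection, done in triplicate, annealed each library with a biotinylated primer, its partner subunit and triplets, then incubated it frozen at −7 °C before gel excision of extended constructs, streptavidin-bead capture and RT-PCR. Fitness is the logarithm of genotype enrichment relative to wild-type enrichment, based on Illumina sequencing of inputs and outputs and inverse-variance-weighted replicate averages. A base-2 logarithm is used, and genotypes were kept only with ≥10 input reads and ≥1 read per output.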
Regarding U15G C27U G84A, the “polymerase ribozyme fitness (log ratio)” value was -1.78.

Take C54G G84U: the “polymerase ribozyme fitness (log ratio)” value was -1.6.

As to G50C U78A G92A, the “polymerase ribozyme fitness (log ratio)” value is at most -4.2.

With A26U C54A C93A A138C G141C, the “polymerase ribozyme fitness (log ratio)” value is at most -4.2.

On to G92U G94C A106G C123A U145C, for which the “polymerase ribozyme fitness (log ratio)” value was -1.97.

Take G34U G58A G59A C85U U101G A150G: the “polymerase ribozyme fitness (log ratio)” value was at most -4.2.

For U56C G143U, the “polymerase ribozyme fitness (log ratio)” value is -2.95.

Take A19G U82G G94A C96U A97U G124U: the “polymerase ribozyme fitness (log ratio)” value was -2.53.

With A3C C18G U56A C57A C93G U146G, the “polymerase ribozyme fitness (log ratio)” value is at most -4.2.

Take C14A U82G C96G: the “polymerase ribozyme fitness (log ratio)” value was -2.31.

As to A21C C32G G84A G117A U135A, the “polymerase ribozyme fitness (log ratio)” value is at most -4.2.

Take U6C C85U A121U U135C: the “polymerase ribozyme fitness (log ratio)” value is -3.27.

Turning to A3U U53A, the “polymerase ribozyme fitness (log ratio)” value is -1.77.

As for A21C C57A C85G U130G, the “polymerase ribozyme fitness (log ratio)” value was -4.

For the variant G58C C96A A115U G128U, the “polymerase ribozyme fitness (log ratio)” value is at most -4.2.

For C57G U77C G84A U134A, the “polymerase ribozyme fitness (log ratio)” value is at most -4.2.

With C54A, the “polymerase ribozyme fitness (log ratio)” value is -1.06.

With C54A A89U G92C A121U, the “polymerase ribozyme fitness (log ratio)” value was -3.

Turning to U45A U56G A73G C96G C99G A107U G140A, the “polymerase ribozyme fitness (log ratio)” value was at most -4.2.

For the variant A22U C93A, the “polymerase ribozyme fitness (log ratio)” value is -2.34.

Turning to U56A C72G, the “polymerase ribozyme fitness (log ratio)” value is -3.76.

With C93U G141C, the “polymerase ribozyme fitness (log ratio)” value is -1.55.

On to U6G U13G C57G, for which the “polymerase ribozyme fitness (log ratio)” value was -2.26.

As to A12U C36G G86A A110C U139A, the “polymerase ribozyme fitness (log ratio)” value is -4.11.

Consider C43U A73G C79A U134A, for which the “polymerase ribozyme fitness (log ratio)” value is at most -4.2.

For C10G G92U, the “polymerase ribozyme fitness (log ratio)” value is -3.24.

In the case of C85U G86U C93U U130A A138U, the “polymerase ribozyme fitness (log ratio)” value is at most -4.2.

On to G86U G88C A119C U127A U144G, for which the “polymerase ribozyme fitness (log ratio)” value was at most -4.2.

For G50A U134A, the “polymerase ribozyme fitness (log ratio)” value was -3.21.

As to U9A C93A, the “polymerase ribozyme fitness (log ratio)” value is -3.87.

Consider U53A A97G A121U C125A, for which the “polymerase ribozyme fitness (log ratio)” value was -1.26.

With C18U C38U A39C G92U C103U, the “polymerase ribozyme fitness (log ratio)” value was at most -4.2.

C76G G86A: the “polymerase ribozyme fitness (log ratio)” value was at most -4.2.

On to A41C A52C G70A C118U, for which the “polymerase ribozyme fitness (log ratio)” value was at most -4.2.

On to C96G C99G C116A A147C, for which the “polymerase ribozyme fitness (log ratio)” value is at most -4.2.

Regarding C14U C72A C85G G133U, the “polymerase ribozyme fitness (log ratio)” value was at most -4.2.

In the case of C96A A98U, the “polymerase ribozyme fitness (log ratio)” value was -0.335.

As to A21U A30C C51U G71U C85U, the “polymerase ribozyme fitness (log ratio)” value is at most -4.2.

Consider G50A C51U U55A C76A C105U C108G, for which the “polymerase ribozyme fitness (log ratio)” value is at most -4.2.

In the case of C87U A150G G152U, the “polymerase ribozyme fitness (log ratio)” value is at most -4.2.

In the case of A52G C63U C93U, the “polymerase ribozyme fitness (log ratio)” value is -1.7.

Turning to A17G C95U G141A, the “polymerase ribozyme fitness (log ratio)” value is 0.672.

As to U55C C85A, the “polymerase ribozyme fitness (log ratio)” value was -1.24.

Consider U55A G81A C93U C105A C118U, for which the “polymerase ribozyme fitness (log ratio)” value was -3.74.

G50A C57A C85A A91C A98C A121U G128U U135G A142U G143A: the “polymerase ribozyme fitness (log ratio)” value was at most -4.2.

Regarding C96A U139C, the “polymerase ribozyme fitness (log ratio)” value was -3.61.

Regarding A91C A115C, the “polymerase ribozyme fitness (log ratio)” value is at most -4.2.

Turning to G50A G84U G141U, the “polymerase ribozyme fitness (log ratio)” value is -3.31.

For C35A C95G C105G A106G G141A, the “polymerase ribozyme fitness (log ratio)” value was at most -4.2.

Regarding U9G G48C G62A U82A G84U, the “polymerase ribozyme fitness (log ratio)” value was at most -4.2.

For C69G G88A U90G U146A, the “polymerase ribozyme fitness (log ratio)” value was at most -4.2.

For A22C C85U, the “polymerase ribozyme fitness (log ratio)” value was -0.656.

For C93U G94U, the “polymerase ribozyme fitness (log ratio)” value was -1.43.

C54U U55G C95A A119C U127G A142C: the “polymerase ribozyme fitness (log ratio)” value is at most -4.2.

G71U C72A A91G C116A A138U: the “polymerase ribozyme fitness (log ratio)” value is at most -4.2.

With C57U U151A, the “polymerase ribozyme fitness (log ratio)” value is -4.18.

For U9G U145C, the “polymerase ribozyme fitness (log ratio)” value is -3.95.

As for C5A A20U A21U A107G U145C C149U, the “polymerase ribozyme fitness (log ratio)” value was at most -4.2.

With A20G C36G G83A A91G A142G, the “polymerase ribozyme fitness (log ratio)” value was at most -4.2.

As to U55A U144G, the “polymerase ribozyme fitness (log ratio)” value was 0.364.

Turning to C54U C57A, the “polymerase ribozyme fitness (log ratio)” value is -0.253.

As to C69G G126U C131A, the “polymerase ribozyme fitness (log ratio)” value was at most -4.2.

Take U56A A73G: the “polymerase ribozyme fitness (log ratio)” value was -0.236.

As for A17C G59A A60C G81C C95U C116U, the “polymerase ribozyme fitness (log ratio)” value worked out at 0.238.

As to G48U G126U, the “polymerase ribozyme fitness (log ratio)” value was -0.307.

With C14U A23C, the “polymerase ribozyme fitness (log ratio)” value is at most -4.2.

Consider A47U G48U G80C C93U, for which the “polymerase ribozyme fitness (log ratio)” value is at most -4.2.

For U90G, the “polymerase ribozyme fitness (log ratio)” value is at most -4.2.

As to U15A G48C G83U, the “polymerase ribozyme fitness (log ratio)” value was -2.41.

Turning to A41G C95U A122G C149A, the “polymerase ribozyme fitness (log ratio)” value is at most -4.2.

U31G C35A G42A: the “polymerase ribozyme fitness (log ratio)” value was at most -4.2.

For A20U C93G, the “polymerase ribozyme fitness (log ratio)” value was at most -4.2.

For the variant A89U G92C G94U G141A, the “polymerase ribozyme fitness (log ratio)” value was -3.94.

For the variant U4A C96A A98C A115U A142U G152C, the “polymerase ribozyme fitness (log ratio)” value is at most -4.2.

Take A60C C79U U102A C103A A142G: the “polymerase ribozyme fitness (log ratio)” value is at most -4.2.

As to G83U G94A, the “polymerase ribozyme fitness (log ratio)” value is -0.328.

In the case of G58A G83A G140U, the “polymerase ribozyme fitness (log ratio)” value is -3.64.

As to U7C A73G U82A G136C, the “polymerase ribozyme fitness (log ratio)” value was at most -4.2.

Take C8A C35U C43A G83C G141U: the “polymerase ribozyme fitness (log ratio)” value is at most -4.2.

As to C38U C75A G80U, the “polymerase ribozyme fitness (log ratio)” value was -4.14.

G65A C93U: the “polymerase ribozyme fitness (log ratio)” value is -1.96.

On to C76A U102G, for which the “polymerase ribozyme fitness (log ratio)” value was at most -4.2.

As to A21U A41U U55G G83A U145A, the “polymerase ribozyme fitness (log ratio)” value is -2.5.
